Measurements taken from paper PMC5791537 (Biomolecular NMR assignments, 2017).

Target: C-domain fragment of human calmodulin (residues 76-148), calcium-free (apo) (human, UniProt P0DP23 77-149)
Experiment: NMR backbone assignment and chemical shift perturbation

Binder: GPGSKRKQEEVSAIIIQRAYRRYLLKQKVKK
- binding result: binds
